Measurements published in US20210315933A1 (TCR2 THERAPEUTICS, published 2021).
Substitutions are numbered along the chain they refer to.

T1: human IL13Rα2 on cells (human, UniProt Q14627 27-380)
T1 construct: whole, on cells; also called hIL13Rα2
T1 sequence (looked up): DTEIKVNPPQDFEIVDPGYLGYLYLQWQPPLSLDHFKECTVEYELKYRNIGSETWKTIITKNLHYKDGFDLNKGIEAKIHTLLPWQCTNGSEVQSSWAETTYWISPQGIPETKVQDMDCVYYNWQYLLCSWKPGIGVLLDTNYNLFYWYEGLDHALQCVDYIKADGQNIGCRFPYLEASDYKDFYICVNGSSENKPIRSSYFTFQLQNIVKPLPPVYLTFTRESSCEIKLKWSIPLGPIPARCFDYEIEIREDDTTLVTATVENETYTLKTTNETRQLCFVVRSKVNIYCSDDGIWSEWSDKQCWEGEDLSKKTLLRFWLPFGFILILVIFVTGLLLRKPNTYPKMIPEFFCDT

T2: recombinant human IL13Rα2 fused to an Fc domain of human IgG1 (hIL13Rα2-Fc) (human, UniProt Q14627 27-343, limits assumed)
T2 construct: Bought construct (R&D Systems); The Fc can be removed by Factor Xa, so a Factor Xa site lies between the parts; not shown: Fc domain of human IgG1
T2 sequence (looked up): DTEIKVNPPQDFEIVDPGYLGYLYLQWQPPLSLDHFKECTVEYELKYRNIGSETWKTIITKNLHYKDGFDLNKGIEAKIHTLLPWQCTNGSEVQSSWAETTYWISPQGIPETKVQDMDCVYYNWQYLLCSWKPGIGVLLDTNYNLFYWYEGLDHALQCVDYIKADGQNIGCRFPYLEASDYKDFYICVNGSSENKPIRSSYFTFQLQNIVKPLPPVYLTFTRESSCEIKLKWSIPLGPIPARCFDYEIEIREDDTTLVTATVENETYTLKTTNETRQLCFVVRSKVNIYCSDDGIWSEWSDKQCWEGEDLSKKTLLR

T3: Human MUC16 polypeptide (MUC16 ectodomain peptide) (human)
T3 construct: Analyte of the Octet titration and antigen of the binning assay; also called MUC16 peptide; MUC16^ecto peptide
T3 peptide: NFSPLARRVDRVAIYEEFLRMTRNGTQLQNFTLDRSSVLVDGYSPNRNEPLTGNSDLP

B1: Llama single domain anti-IL13Rα2 Clone 1 (LSD1) (VHH)
VHH: DVQLVESGGGLVQPGGSLRLSCAASGFTSDYYIIGWFRQAPGKEREGVSCISSKYANTNYADSVKGRFTQSRGAAKNTVYLQMNALKPEDTAVYYCAADTRRYTCPDIATMHRNFDSWGQGTQVTVSS
notes: Captured on a Ni-NTA sensor in the Octet assay, so a His tag is implied; the tag is not described for this construct; also called parental; clone 1 parental
B2: anti-IL13Rα2 Clone 2 humanized variant 2-h6 (VHH)
VHH: EVQLVESGGGLVQPGGSLRLSCAASGFASDDYIMGWFRQAPGKGLEGVSCISSRYANTVYADSVKGRFTISRDNAKNTLYLQMNSLRPEDTAVYYCAMDSRRVTCPEISTMHRNFDSWGQGTQVTVSS
B3: Humanized Llama Single domain anti-IL13Rα2 Clone 1-h8 (H1-LSD1) (VHH)
VHH: B2 VHH with A28T, D31Y, R54K, V59Y, M98A, S100T, V103Y, E107D, S109A, Q123L
notes: Captured on a Ni-NTA sensor, so a His tag is implied; the tag is not described
B4: Humanized Llama Single domain anti-IL13Rα2 Clone 2-h8 (H1-LSD2) (VHH)
VHH: B2 VHH with V59Y, Q123L
notes: as for B3
B5: Humanized Llama single domain anti-IL13Rα2 Clone 1-h10 (H2-LSD1) (VHH)
VHH: EVQLVESGGGLVQPGGSLRLSCAASGFTSDYYIMGWVRQAPGKGLEWVSCISSKYANTYYADSVKGRFTISRDNAKNTLYLQMNSLRPEDTAVYYCAADTRRYTCPDIATMHRNFDSWGQGTLVTVSS
notes: as for B3
B6: Humanized Llama single domain anti-IL13Rα2 Clone 2-h10 (H2-LSD2) (VHH)
VHH: B2 VHH with F37V, G47W, V59Y, Q123L
notes: as for B3
B7: anti-IL13Rα2 Clone 1 humanized variant 1-h9 (VHH)
VHH: B5 VHH with V37F
B8: Llama single domain anti-IL13Rα2 Clone 2 (LSD2) (VHH)
VHH: DVQLVESGGGLVQPGGSLRLSCEASGFASDDYIIGWFRQAPGKEREGVSCISSRYANTVYTDSVKGRFRISRGTAKNTVYLQMSALKPEDTAVYYCAMDSRRVTCPEISTMHRNFDSWGQGTQVTVSS
notes: Captured on a Ni-NTA sensor, so a His tag is implied; the tag is not described; also called 2-parental; clone 2 parental
B9: anti-IL13Rα2 Clone 2 humanized variant 2-h1 (VHH)
VHH: B2 VHH with T69R, D73G, L79V, N84S, S85A
B10: anti-IL13Rα2 Clone 2 humanized variant 2-h3 (VHH)
VHH: B2 VHH with D73G, L79V, N84S
B11: anti-IL13Rα2 Clone 2 humanized variant 2-h4 (VHH)
VHH: B2 VHH with D73G, L79V
B12: anti-IL13Rα2 Clone 2 humanized variant 2-h5 (VHH)
VHH: B2 VHH with L79V
B13: single domain anti-MUC16 binder R3MU4 (VHH)
VHH: QVQLQESGGGLVQAGGSLRLSCAASGRTVSSLFMGWFRQAPGKERELVAAISRYSLYTYYADSVKGRFTISADNAKNAVYLQMNSLKPEDTAVYYCASKLEYTSNDYDSWGQGTQVTVSS
notes: also called Parental R3Mu4; parental (llama) R3Mu4; not shown: C-terminal tags (pMECS GG: HA tag and His6 tag; His-tagged in the Octet assay)
B14: R3MU4h11 (96.7% human) (VHH)
VHH: EVQLVESGGGLVQPGGSLRLSCAASGRTVSSLFMGWFRQAPGKGLELVSAISRYSLYTYYADSVKGRFTISRDNAKNTLYLQMNSLRPEDTAVYYCASKLEYTSNDYDSWGQGTLVTVSS
notes: also called R3Mu4 h11#2; not shown: His tag (His-tagged MUC16 sdAbs)
B15: R3MU4h12 (97.8% human) (VHH)
VHH: B14 VHH with L47W
notes: also called R3Mu4 h12#2; not shown: His tag (His-tagged MUC16 sdAbs)
B16: R3MU29h13 (96.7% human) (VHH)
VHH: B14 VHH with T28A
notes: also called R3Mu29_h13#11; not shown: His tag (His-tagged MUC16 sdAbs)
B17: Single domain anti-MUC16 R3MU29 (VHH)
VHH: B13 VHH with G16D, T28A, Q39R
notes: also called Parental R3Mu29; parental (llama) R3Mu29; not shown: C-terminal tags (pMECS GG: HA tag and His6 tag; His-tagged in the Octet assay)
B18: R3MU4h13 (98.9% human) (VHH)
VHH: B14 VHH with F37V, L47W
notes: not shown: His tag (His-tagged MUC16 sdAbs)
B19: R3MU29h14 (97.8% human) (VHH)
VHH: B14 VHH with T28A, L47W
notes: also called R3Mu29_h14#13; not shown: His tag (His-tagged MUC16 sdAbs)
B20: R3MU29h15 (98.9% human) (VHH)
VHH: B14 VHH with T28A, F37V, L47W
notes: also called R3Mu29_h15#16; not shown: His tag (His-tagged MUC16 sdAbs)

How the values were obtained:
[1] = target: T1, human IL13Rα2 on cells; assay: flow cytometry control; cell line not stated
[2] = target: T1, human IL13Rα2 on cells; assay: flow cytometry; cell line not stated
[3] = target: T2, recombinant human IL13Rα2 fused to an …; assay: Octet (BLI); nanobody on Ni-NTA sensor, IL13Rα2-Fc in solution
Procedure: (§1) Two clones were chosen for humanization. […] Each humanized nanobody was analyzed by Octet at 500 nM on an Ni-NTA sensor, with three fold dilutions of antigen (IL13Rα2-Fc) at 125 nM, 41.66 nM, and 13.86 nM. A summary of the octed measurements for each of the humanized variants depicted in FIG. 1 is shown in Table 1 (clone 1) and Table 2 (clone 2).

[4] = target: T2, recombinant human IL13Rα2 fused to an …; assay: Octet KD relative to clone 1 parental
Procedure: as §1

[5] = target: T1, human IL13Rα2 on cells; assay: flow cytometry; cell line not stated; remark: listed apart in the source
[6] = target: T2, recombinant human IL13Rα2 fused to an …; assay: Octet KD relative to clone 2 parental
Procedure: as §1

[7] = target: T3, Human MUC16 polypeptide (MUC16 …); assay: Octet (BLI), NTA biosensor; His-tagged sdAb on sensor, MUC16 peptide titrated; 1:1 global fit
Procedure: FIGS. 5A-C show titration and measurement of binding affinity of parental (llama) and humanized anti-MUC16 single chain antibody (VHH). FIG. 5A is a diagram illustrating the experimental procedure by which the VHH binders produced in Example 5 are screened using an NTA biosensor (nickel coated surface). The His-tagged MUC16 sdAbs (3.25 μg/ml) are bound to the biosensor, and the MUC16 peptide is added at concentrations of 0, 1.56, 6.25, 25, 50, 100 or 200 nM. Buffer: 1× Octet; 1× Corning® Cellgro® PBS (cat. 21-040-CM) containing 0.02% Tween® 20 at 30° C. Sensors: Pall Forte Bio Dip & Read (cat. 18-5102). FIG. 5B (clone R3Mu4 parental and humanized variants) and FIG. 5C (clone R3Mu29 parental and humanized variants) show binding kinetics of the sdAbs to the MUC16 target (see also Table 1). These curves were used to derive binding affinity constant for each protein and to assess the effect of humanization on antigen binding.
The VHH binders produced in Example 5 are screened using an NTA biosensor (nickel column, see FIG. 5A for a drawing outlining the method). The His-tagged MUC16 sdAbs (3.25 μg/ml) are bound to the column, and then the MUC16 peptide is passed through the column at concentrations of 200, 100, 50, 25, 6.25, 1.56, and 0 nM. Buffer: 1× Corning® Cellgro® PBS pH 7.4 (cat. 21-040-CM) containing 0.02% Tween® 20) at 30° C. Sensors: Pall Forte Bio Dip & Read (cat. 18-5102).

Row | Kd [3] [nM] | Flow Cytometry MFI [5] [MFI] | KD fold difference [6] [fold] | Kd [7] [nM] | also measured | Molecule
1 |  |  |  |  | Flow Cytometry MFI [1]: 21.4 MFI | Isotype Control (flow cytometry control) (antibody)
2 |  |  |  |  | Flow Cytometry MFI [1]: 90.4 MFI | 2o Ab (secondary antibody alone, flow cytometry control)
3 | 0.63 |  |  |  | Flow Cytometry MFI [2]: 2270 MFI; KD fold difference [4]: 1 fold | B1
4 | 1130 | 2870 | 1.4 |  |  | B2
5 | 1.94 |  |  |  | Flow Cytometry MFI [2]: 1240 MFI; KD fold difference [4]: 3.1 fold | B3
6 | 950 | 2020 | 1.2 |  |  | B4
7 | 1.46 |  |  |  | Flow Cytometry MFI [2]: 639 MFI; KD fold difference [4]: 2.3 fold | B5
8 | 3310 | 1120 | 4.1 |  |  | B6
9 | 1.91 |  |  |  | Flow Cytometry MFI [2]: 842 MFI; KD fold difference [4]: 3 fold | B7
10 | 810 | 3650 | 1 |  |  | B8
11 | 930 |  | 1.1 |  |  | B9
12 | 910 | 3070 | 1.1 |  |  | B10
13 | 960 | 3060 | 1.2 |  |  | B11
14 | 870 | 1450 | 1.1 |  |  | B12
15 |  |  |  | 10.2 |  | B13
16 |  |  |  | 10.9 |  | B14
17 |  |  |  | 94.6 |  | B15
18 |  |  |  | 8.3 |  | B16
19 |  |  |  | 6.3 |  | B17
20 |  |  |  | 36.2 |  | B18
21 |  |  |  | 36.4 |  | B19
22 |  |  |  | 22.9 |  | B20
